Results taken from the DeepSol protein solubility set.

Experiment: soluble on expression in E. coli; label from the status in PepcDB or PDB records

Which “soluble on expression in E. coli” value does the source give for “FGDFNYNTTFTATTNKNKIIQLARDVLNPVTNTLIDLTDIQVGRFRLREGGEIGTVYANEWLKRDGDNYIDYQPGQALTTETTSPYKLGSVNPKWNLGWQHGFSYKGFNLNLLFTARIGGIAISKTQAMLDRYGVSEASADARDAGGVSLGYFKVDPKTYYDAVSNLDAYYTYSATNVRLQEARLTYTFPNKWFKGTVNNLSLSVYGTNLWMIYNKAPYDPELTASTGTFGQGYDYFMLPSQSTYGLSLKFGF” here?
The value was “not soluble”.

With “SLSPRRLRLLLVDENPTARAVIGRRLSHRHYDVTVVEDGFAAQKTLIIQPSDIILIDMDLQLLPAIGTMEKIRAAHPAGHACIVMIGGASDTPKMIAALDAGADDHIVKPFDFDMLDARLRRVHARAERVNLLSRQYAELDARIARRAMELGETRETLRQVELDRARLMASVDHLQAEVARLSAREG” as the sequence, how does the “soluble on expression in E. coli” value read?
The value was “soluble”.

Which “soluble on expression in E. coli” value does the source give for “MGSDKIHHHHHHVGRIEGQACPATGIWLLPARRQTAYRIQKTSYSALSAPARMDGTDRLAWGRYDTVGTTLYLAENAECAFSETLSPFKRAIGTVDPLRKDADALGMTLEDFYEEVAYQWQEKSFMNSGTLPRIWRTERQLHIVELPFPGWWIDVEHPETMAAVEAAIPDTLKDLGITHVDTSLLRSNRRDVTTAIADHLRDLVLFDGSYAPGIKFGSRHGAYLNWAVWLRDHDLQLSGDDGLVHLGESPISFNDPDLEAASRRFRLKVF” here?
Its value is “not soluble”.

Which “soluble on expression in E. coli” value does the source give for “MRKLFIALTFLLVPACLSAQLGGKIYLQRADSLLQRVLSLYEVKKYGLLMETYPRNPKQQITYTANTGSEVTQQEVSFLWPYSAMVSGCVSLYKTSGNKKYKKLMDKQIKPGLDLYWDTTRQPECYQSYPAFAGQNDRYYDDNDWVAIDFCDYYAVTKNKEYLKKAIALHDYIYSGWSDELGGGIYWCEQKKESKNTCSNAPATVLCMKLYKLTKDKKYLDQAMATYQWTRDNLRDPSDFVYWDNKNLQGKIGYAKYTYNSGQMIQAGVLLYQATGDEQYLKDAQQTAKGSYEHFLKPQPTVKGEMKFFPSSPWFNVILFRGLKALYEVDKNDTYVKAMIDNADYAWQYTRDENGLLNNDWSGNRKDKFKSLLENSCMIELYSEISELLEHHHHHH” here?
Its value is “not soluble”.

Which “soluble on expression in E. coli” value does the source give for “MQDNSRYTHFLTQHYDAKPQGRDDRYCESIMRRRGLTSDRCKPINTFIHGNKRSIKAICENKNGNPHRENLRISKSSFQVTTCKLHGGSPWPPCQYRATAGFRNVVVACENGLPVHLDQSIFRRP” here?
The value was “soluble”.

Which “soluble on expression in E. coli” value does the source give for “MSLINDLRTVPAALDRLVRQLPDHTALIAEDRRFTSTELRDAVYGAAAALIALGVEPADRVAIWSPNTWHWVVACLAIHHAGAAVVPLNTRYTATEATDILDRAGAPVLFAAGLFLGADRAAGLDRAALPALRHVVRVPVEADDGTWDEFIATGAGALDAVAARAAAVAPQDVSDILFTSGTTGRSKGVLCAHRQSLSASASWAANGKITSDDRYLCINPFFHNFGYKAGILACLQTGATLIPHVTFDPLHALRAIERHRITVLPGPPTIYQSLLDHPARKDFDLSSLRFAVTGAATVPVVLVERMQSELDIDIVLTAYGLTEANGMGTMCRPEDDAVTVATTCGRPFADFELRIADDGEVLLRGPNVMVGYLDDTEATAAAIDADGWLHTGDIGAVDQAGNLRITDRLKDMYICGGFNVYPAEVEQVLARMDGVADAAVIGVPDQRLGEVGRAFVVARPGTGLDEASVIAYTREHLANFKTPRSVRFVDVLPRNAAGKVSKPQLRELGEGHHHHHH” here?
The value was “not soluble”.

Which “soluble on expression in E. coli” value does the source give for “SLCGEPGCRHEQTAVKAGRSRNWAGSFAKTPGRLFGVGFIRLYQLTLSGFVGNSCRHIPTCSEYGYEAIARHGLWAGGWMALFRVARCGPGGTSGLDPVPEELDGSKRWWTPWRYWSRHR” here?
Its value is “soluble”.

Which “soluble on expression in E. coli” value does the source give for “KPYTIDKANSSVWFEVKHFKFNETRGVFDSFDGKIDADPNTKALNVFEGKIDIKSINTRNKKRDDHLKTAEFFDVVKYPKGSFKMTKYEDGKIHGDLTLHGVTKPVVLEAKIQAPLQNPMNKKEFMVLQAEGKINRKDFGIGKTFSDAVVGDEVKIELKLEAYA” here?
The value was “soluble”.

For “MLESSLTFLLLPVGFPGEVLVTLARRAREAMPVPSLWLASTDPLEPPIEAYSWERMQFDAEKVNEHIHSVLYDYVREGIRIIGVVDADGYIPGFNFVFGLASTALGVATVYTRRLKTGGNGLYTERLLKEVLHEAGHLLGLDHCSNRECVMSFSRSVEEVDRKAPLFCSSCKAKLVLKYGSRGQLEHHHHHH”, which “soluble on expression in E. coli” value is on record?
Its value is “soluble”.

For “MSLAGHQPILTVSEVTRHLKRTIEDDPLLQDVWMRGEISNFKHHSRGHMYFTLKDEHAKMSAVMFAGNNRFLNFKPENGMKVIVRGEVNVYEPFGQYQLYALEMQPDGIGNLYLAYEQLKERLEQEGLFKEENKKPLPPVARQIAIVTSPTGAAIRDIASTIKRRFPVAQLTLLPVLVQGEEAPHSIAKAIRQANEVGGFDLLIVGRGGGSIEELWAFNEELVARAIYQSVIPIISAVGHETDYTIADFVADVRAATPTGAAELAVPDLKELISRVNQYTERLKRAQHELLKRQKEHLQRLQKSYAFRYPAQLVKQKELELDQQLERLTKHQRRMVSDAKDRLSQLEYRLKRIHPEGRLRQAEQARVKLEVLLKKEFQQMMERKEQQFQQAISSLNLLSPLRVMERGYALPYKAKTQELIKSVKQVRMNDRLHLRVTDGQLICDVKEIESESGGEGYDQKEGHHHHHH”, which “soluble on expression in E. coli” value is on record?
The value was “not soluble”.

With “MGSDKIHHHHHHMTRSVLVDLDAVLSIARLGSFRAAALDLGMSTTALSNAIAKLEQRLGVRLFNRTTRSVSLTDAGKTFAERVGPAMMDIHDAMLSVQSLQETPAGTLRINAFATAAREVMEPLILSFMQRYPQVHIDLVTEGRIVDIVAAGFDLGLRPADLVPADMIAVSLGLKRSNAVVASPDFLRIHGIPTVPADLYRFRCIRARLPNNALFRWKFEKDGDAMQIDVQGSITLDESSLVRIAAQNGVGLGYVMEADVREDIAAGRLVRVLEDWTPALAPLALYYPGRKNPPAAFSAFIQAARNFANGG” as the sequence, how does the “soluble on expression in E. coli” value read?
The value was “not soluble”.

For “MSANSKDRNQSNQDAKRQQQNFPKKISEGEADLYLDQYNFTTTAAIVSSVDRKIFVLLRDGRMLFGVLRTFDQYANLILQDCVERIYFSEENKYAEEDRGIFMIRGENVVMLGEVDIDKEDQPLEAMERIPFKEAWLTKQKNDEKRFKEETHKGKKMARHGIVYDFHKSDMY”, which “soluble on expression in E. coli” value is on record?
Its value is “not soluble”.

With “NSDSECPLSHDGYCLHDGVCMYIEALDKYACNCVVGYIGERCQYRDLKWWELR” as the sequence, how does the “soluble on expression in E. coli” value read?
Its value is “soluble”.

Which “soluble on expression in E. coli” value does the source give for “MGEAYAEVFPDPDGISGHVKGVVDINAPPEKVWRIMTDCAAAKVMITTLAVCRIVEGDMARGWDIREHVTRRNLVFPGLRIVFRSDYEPYSRIKFKLVGGDLKVEQGEWKLQALDGGRRTRVLYDNRLAVDWPVPKALIREALRKDTPKVLMNLKRLCELEHHHHHH” here?
Its value is “not soluble”.

Which “soluble on expression in E. coli” value does the source give for “APTLISLLEVIEPEVLYSGYDSTLPDTSTRLMSTLNRLGGRQVVSAVKWAKALPGFRNLHLDDQMTLLQYSWMSLMAFSLGWRSYKQSNGNMLCFAPDLVINEERMQLPYMYDQCQQMLKISSEFVRLQVSYDEYLCMKVLLLLSTVPKDGLKSQAVFDEIRMTYIKELGKAIVKREGNSSQNWQRFYQLTKLLDSMHEMVGGLLQFCFYTFVNKSLSVEFPEMLAEIISNQLPKFKAGSVKPLLFHQK” here?
The value was “soluble”.

With “MPISSSSARRAEPAPRPLAEFHPVVRQWFERHFAAPTPAQVEAWPAIREGLSTLVAAPTGSGKTLTAFLAAIDALVVEGLAAGGELADATQVVYVSPLKALSNDIRINLEQPLAGIREELARLGLPDVDIRSAVRTGDTPQVERGAMRKRPPHILVTTPESLYILLGSESGRQMLAGVRSVIVDEIHALAGSKRGSHLALSLERLQALCPRPLLRIGLSATQKPIEKVARFLVGASGNPRDPACRIVDVGYTRPRDLGIEVPPVALEAVMSNDTWELVYDRLAHLAGEHRTTLVFVNTRRMAERVTRFLAERLGSRQVAAHHGSLAKELRLDAEQRLKAGQLKVLVATASLELGIDIGDVELVCQLSSPRSIAAFLQRVGRSGHSVGGTPKGRLFPTSRDDLVECAALLDSVRRGELDSLVLPRQPLDVLAQQIVAEVACQEWREDDLYRLVIRAEPYAGLERERFDEVLRMLAEGYHSRLGVRGAYLHRDALNGLLRGRRGARLTALTSGGTIPDTGDYSVLLEPQGLLVGTVNEDFAVESLAGDVFQLGNTSYRIIRIEPGRVRVEDAQGQPPNIPFWLGEAPGRSDELSASVARLRDTLDELLGEGQALPEGRRLEPAIAWLGATLGLDDGAARQIVEYLARARQALGGLPGSRRLVLERFFDESGGMQLIIHSPHGSRLNRAWGLALRKRFCRSFNFELQAAATEDAIILSLSTSHSFPLDEVWRYLHSASAEHLLVQAVLDAPLFGVRWRWNLTTSLGLPRYAGGRKVPPQLLRMKSEDLLASVFPDQVACLENIVGEREVPDHPLVAQTLDDCLHEAMDCEGWLALLRDMESGAVDLLARDLPAPSALAAEILTARPYAYLDDAPLEERRTQAVQNRRWSDPESADDLGALDLEAIEAVRGEAWPEASNADEMHEALNSLGFLTSGEAEANPGWGEWLAQLSEQRRAGRLDCAGSTLWLAAERLPAMRLVHPAAKVPDAFQAPRGYPPPDSAEAATVELTRARLGGFGPRTAGQLAADLGIGLADQQYALAALEREGYVLRGRFSPGATEEEWCERHLLARIHRYTVKRLRREIEPVERADFMRFLFDWQRLAPGTRGRGAESLATVVEQLEGFQAAAAAWESELLAARVADYASHWLDQLCRSGRIVWARLAGRSKAAGGPLRSAPIVLLPRRELGLWSVLQRDAPEPELSPRAARVLEVLREQGASFFDELSQDAHLLRSELENALGELVSVGRVNADSFAGLRTLLMPADKRSRQERRSRGLPGGMQDAGRWAPLRRAKAEEAGQRLPAEVLEHVARTLLRRYGVVAWRLLEREADWLPPWRELLRVYHRLEARGEIRGGRFIAGLAGEQFALAEAVGLLREVRKRPPDGAMLVVSAVDPLNLVGGLLPGERVPAVTGNRLLYRDGAPLAALVAGKVRMLAEVDGETAQQIRALLI” as the sequence, how does the “soluble on expression in E. coli” value read?
The value was “not soluble”.

For “TYDSLKESTARDTGHLTLTTPGYFAKEEEMPLSNGLSHADEITKQLIGLSEVRGVQPRVEFSGLISNGSKSSIFIGIGVNEREFDMKGPFLDVRDGQTLSNIHASRYDASEPEVMLGVDLASNLSVNVGDWITLLATTTDGALNAYDFKVRGIYSTGVPELDKRQLYVHINSAQSLLGSDKVSALSVFLFDTCLTNKVEQQVATILNKQKPSFGDQEVEITPWQERAFFYLKVKDLYDR”, which “soluble on expression in E. coli” value is on record?
The value was “not soluble”.

Which “soluble on expression in E. coli” value does the source give for “GRVESVWDLKGVWADQAQSDSQGSTTTATRNALPEHPNALAFQVSVVEASAYKPNTSSGQTQSTNSSPYLHLVKPKKVTQSDKLDDDLKNLLDPNQVRTKLRQSFGTDHSTQPQPQSLKTTTPVFGTSSGNLSSVLSGGGAGGGSSGSGQSGVDLSPVEKVSGWLVGQLPSTSDGNTSSTNNLAPNTNTGNDVVGVGRLSESNAAKMNDDVDGIVRTPLAELLDGEGQTADTGPQSVKFKSPDQIDFNRLFTHPVTDLFDPVTMLVYDQYIPLFIDIPASVNPKMVRLKVLSFDTNEQSLGLRLEFFKPDQDTQPNNNVQVNPNNGDFLPLLTASSQGPQTLFSPF” here?
Its value is “soluble”.

Which “soluble on expression in E. coli” value does the source give for “MLKSVLDALENGRLVELPDNDKSDALQFLATILEAVPSIPAGSNIVEIVLEHEKNSNTSLGFGWACPHARVNFDGDLCCAIGWSPAGIDYGIAGEPLVRLVVMFFVPENQRNTYLKEVSTLARVLKSNPEFQNLEPIGDLDQVRNTLLDMTHQAMSEGGKNYRARMIQLDTLTKSAGDAGHYWLKGMQIDALLVVAGPDIKPLVLSQNAELSRLATQDTQLVPAIASGNHYELQGWQIVRRSSTAYAGERVIYDCLAIKTRQGQGAPEAGG” here?
Its value is “soluble”.
